{"source": "paper PMC9184547", "about": "“Distinct dissociation rates of murine and human norovirus P-domain dimers suggest a role of dimer stability in virus-host interactions” (Communications Biology, 2022)", "molecules": {"B1": {"name": "MNV-1 (CW1) P-domain (domain or fragment)", "chain": "TIYRMVDLPVIQPRLCTHARWPAPVYGLLVDPSLPSNPQWQNGRVHVDGTLLGTTPISGSWVSCFAAEAAYKFQSGTGEVATFTLIEQDGSAYVPGDRAAPLGYPDFSGQLEIEVQTETTKTGDKLKVTTFEMILGPTTNADQAPYQGRVFASVTAAASLDLVDGRVRAVPRSIYGFQDTIPEYNDGLLVPLAPPIGPFLPGEVLLRFRTYMRQIDTADAAAEAIDCALPQEFVSWFASNAFTVQSEALLLRYRNTLTGQLLFECKLYNEGYIALSYSGSGPLTFPTDGIFEVVSWVPRLYQLASVGSLATGRMLKQ", "notes": "Protruding (P)-domain of the major capsid protein VP1 of murine norovirus MNV-1 (CW1); construct truncated at the C-terminus compared to prior work; Monomer-dimer equilibrium in solution; Used unlabeled, [U-2H,15N] labeled or 13C-methyl (MILproSVproSA) labeled; also called MNV CW1 P-domain; MNV.CW1 P-domain; source: E. coli BL21 DE3, purified (Ni-NTA, HRV3C cleavage, Ni-NTA, SEC at pH 5.3)"}}, "key": {"[1]": {"target": "GII.4 Saga P-domain (native, non-deamidated) (human norovirus GII.4 Saga)", "assay": "native MS; 150 mM ammonium acetate pH 7.3, purified GII.4 Saga P-domain, 25 C, also at low protein concentration"}, "[2]": {"target": "T1, MNV CW1 P-domain (MNV-1 P-dimer) (Murine norovirus 1, UniProt Q80J94)", "T1 construct": "gene ORF2; MBP-His8 fusion from E. coli BL21(DE3), cleaved with HRV3C; MIL(proS)V(proS)A 13C-methyl labelled for NMR", "assay": "differential scanning fluorimetry (SYPRO orange)", "format": "binding", "conditions": "pH 5.3, 20 mM sodium acetate, 100 mM NaCl; 3 µM protein; stabilisation rises with ligand concentration"}, "[3]": {"target": "T1, MNV CW1 P-domain (MNV-1 P-dimer)", "assay": "methyl TROSY NMR titration, TITAN global lineshape analysis", "format": "binding"}, "[4]": {"target": "GII.4 Saga P-domain deamidated at position 373 (iso-aspartate, iD) (human norovirus GII.4 Saga)", "assay": "ion-exchange chromatography of exchanging dimers; 373iD/iD and 373Q/Q dimers mixed 1:1, total 1.24 mg/ml, 75 mM sodium phosphate, 100 M NaCl (so in the source), 0.02% NaN3, pH 7.3, 298 K; aliquots over 38 days on analytical cation exchange chromatography; fraction of mixed dimers fitted to an exponential; dimer to monomers"}, "[5]": {"target": "the molecule itself", "assay": "native MS; 150 mM ammonium acetate pH 5.3, 2-92 uM purified P-domain, 25 C; relative dimer peak area against total protein fitted; dimer to monomers"}, "[6]": {"target": "the molecule itself", "assay": "SEC; analytical Superdex 75 Increase 3.2/300, 20 mM sodium acetate, 100 mM NaCl, pH 5.3, 278 K; 250 nM-270 uM protein; apparent molecular weight against feed concentration fitted, apparent KD; lower limit from the 10x dilution; dimer to monomers"}, "[7]": {"target": "the molecule itself", "assay": "NMR titration; 1H,15N TROSY HSQC spectra of [U-2H,15N] labeled P-domain at 24-200 uM protein; intensities of unassigned dimer cross-peaks; 298 K, 20 mM sodium acetate, 100 mM NaCl, pH* 5.3; dimer to monomers"}, "[8]": {"target": "the molecule itself", "assay": "NMR titration; methyl TROSY (1H,13C HMQC) spectra of MILproSVproSA labeled apo P-domain at six concentrations 12.5-226 uM; global two-dimensional lineshape analysis with TITAN (dimerization model); 298 K, 20 mM sodium acetate-d3, 100 mM NaCl, pH* 5.26 in D2O; dimer to monomers"}, "[9]": {"target": "the molecule itself", "assay": "SEC-MALS; Superdex 75 10/300 GL, 10-200 uM protein, 20 mM sodium acetate, 100 mM NaCl, pH 5.3"}}}
{"molecule": "GII.4 Saga P-domain (native, non-deamidated) (domain or fragment)", "values": [{"measurement": "stoichiometry N", "setting": "[1]", "result": 2}]}
{"molecule": "C[C@H](CCC(=O)NCC(=O)O)[C@H]1CC[C@H]2[C@@H]3[C@H](O)C[C@@H]4C[C@H](O)CC[C@]4(C)[C@H]3CC[C@]12C", "note": "[GCDCA, glycochenodeoxycholic acid]", "values": [{"measurement": "TM", "setting": "[2]", "result": "thermostability of CW1 P-domains improves considerably with increasing GCDCA concentrations"}, {"measurement": "Kd", "setting": "[3]", "result": "10.5 ± 0.5", "unit": "µM"}]}
{"molecule": "GII.4 Saga P-domain point mutant N373Q (domain or fragment)", "values": [{"measurement": "dimer half-life time", "setting": "[4]", "result": 127, "unit": "h"}, {"measurement": "koff", "setting": "[4]", "result": "1.51e-06", "unit": "s⁻¹"}]}
{"molecule": "B1", "values": [{"measurement": "Kd", "setting": "[5]", "result": 32, "unit": "µM"}, {"measurement": "Kd", "setting": "[6]", "result": "4 to 40", "unit": "µM"}, {"measurement": "Kd", "setting": "[7]", "result": "~31", "unit": "µM"}, {"measurement": "Kd", "setting": "[8]", "result": 6.9, "unit": "µM"}, {"measurement": "koff", "setting": "[8]", "result": 1.25, "unit": "s⁻¹"}, {"measurement": "kon", "setting": "[8]", "result": 140000, "unit": "M⁻¹ s⁻¹"}, {"measurement": "stoichiometry N", "setting": "[9]", "result": 2}]}
